Data reported in patent US12448434B2, “Antibodies specifically recognizing Pseudomonas PcrV and uses thereof” (priority 2019, dated 2025).

How the values were obtained:
[1] = test system: PcrV; assay: BIACORE binding to PcrV; parameters: species or system Pseudomonas aeruginosa; conditions: data not shown
Protocol: The association constant (ka), dissociation constant (kd) and the equilibrium dissociation constant (kD) for binding of optimized anti-PcrV mAb clones 7B1, 7C1, 8C1, 6D10 and reference antibody V2L2-MD to PcrV were tested by BIACORE (GE company).

[2] = test system: P. aeruginosa strains O1-52/66, O16-177/81, and O6-57/66; assay: RBC lysis inhibition assay, various strains (average); format: cell-based, Pseudomonas aeruginosa; conditions: FIGS. 5A-5C
Protocol: Monoclonal scFv antibodies were selected and assessed for biological activity by RBC lysis assay. Briefly, red blood cells (RBCs) were prepared from fresh whole human or rabbit blood by centrifugation, supplemented with EDTA and rinsed with multiple phosphate-buffered saline (PBS) washes. Washed RBCs (2.5% [vol/vol] final) in Dulbecco's modified Eagle's medium (DMEM) plus 10% fetal bovine serum (FBS) (Gibco) and purified anti-PcrV antibodies diluted in PBS were combined into wells of a round-bottom 96-well plate. Strain 57/66(O6) P. aeruginosa was grown to mid-log phase in 2× YT medium (Oxford), harvested by centrifugation, and resuspended in DMEM-fetal bovine serum (FBS) at an optical density at 600 nm (OD600) of 0.15. Ten microliters of bacterial suspension was added to the RBC-antibody mixture, mixed by agitation, and incubated for 3 hours at 37° C. and 5% CO2. The plates were briefly centrifuged (1000 rpm, 1 min) to pellet the intact RBCs, the supernatants transferred to a flat-bottom 96-well plate, and the OD405 was measured to detect any lysis, from which the relative amount of lysis inhibition was calculated and plotted. IC50 values for the antibodies were also determined.
The optimized anti-PcrV mAb clones 7C1, 8C1, and 7B1 were further analyzed for their abilities to inhibit red blood cell lysis by various strains of P. aeruginosa, namely strains O1-52/66, O16-177/81, and O6-57/66, as compared to the parental 13-42 mAb and the reference antibody V2L2-MD. RBC lysis inhibition assay was performed as described in Example 1.

[3] = test system: P. aeruginosa strains O6-57/66, O11-PA103, O1-52/66 and O16-177/81; assay: A549 cell lysis inhibition, various strains (average); format: cell-based, Pseudomonas aeruginosa; conditions: FIGS. 6A-6D
Protocol: To assay for ability to inhibit cytotoxicity and cell lysis caused by P. aeruginosa, the candidate anti-PcrV antibodies were added to human bronchoepithelial cell line A549 or human histiocytic lymphoma cell line U937 seeded in white 96-well plates (Nunc Nunclon Delta) in DMEM plus 10% fetal bovine serum. Log-phase strain PA103(O11) P. aeruginosa was added at a multiplicity of infection (MOI) of 10 and incubated for 2 h at 37° C. and 5% CO2, followed by 20 minutes of equilibration at room temperature. Lactate dehydrogenase (LDH) released from lysed cells was quantified using the CytoTox-ONE kit (Promega), to assay membrane integrity. The relative amount of lysis inhibition was plotted accordingly. IC50 values for the antibodies were also determined.
The optimized anti-PcrV mAb clones 7C1, 8C1, and 7B1 were analyzed for their abilities to inhibit A549 cell lysis by various strains of P. aeruginosa, namely strains O6-57/66, O11-PA103, O1-52/66 and O16-177/81, as compared to the parental 13-42 mAb. A549 cell lysis inhibition assay was performed as described in Example 2.

[4] = test system: BV particles; assay: Cross-reactivity to BV particles by ELISA; format: binding; conditions: FIG. 3
Protocol: Cross-reactivity to BV particles: Using ELISA, optimized antibodies 7C1, 7B1, 8C1, 6D10, and reference antibodies V2L2-MD and Mab166 were tested for cross-reactivity to BV particles according to the method described previously (See Hötzel I, et al, 2012, mAbs 4:6, 753-760).

[5] = test system: PcrV-negative A549 cells; assay: Cross-reactivity to PcrV-negative A549 cells by FACS; format: cell-based, human; conditions: FIGS. 4A-4E, compared with no antibody and V2L2-MD
Protocol: Cross-reactivity to A549 cells: Using FACS, parental antibody 13-42, optimized antibodies 7C1, 7B1, 8C1, 6D10 as well as V2L2-MD were tested for cross-reactivity to PcrV-negative A549 cells.

[6] = test system: PcrV mutants (with mutations at position 225); assay: Binding to PcrV mutants with mutations at position 225; parameters: species or system Pseudomonas aeruginosa; conditions: data not shown
Protocol: To further illustrate the optimized antibodies could broadly neutralize P. aeruginosa strains, the abilities of these antibodies to bind various forms of PcrV mutants were tested. Briefly, 100 PcrV sequences were randomly selected from Genebank database. In contrast to the wild type sequence as shown in SEQ ID No: 71, 13% of the selected sequences contained R, G, or K at position 225 (as compared of S in the wild type sequence SEQ No: 71), which was the main mutation around the epitope of 7B1.
These findings further illustrate that the optimized anti-PcrV antibodies could neutralize a broad spectrum of P. aeruginosa strains, which might express various forms of PcrV mutants.

[7] = test system: P. aeruginosa (PA103 strain); assay: Prophylactic mouse acute pneumonia model, organ burden; format: in vivo, BALB/c mice; conditions: 10 mg/kg i.p. 24 hr before infection; 0.5*LD90; FIG. 8B
Protocol: In a prophylactic model, 7-8 week old BALB/c mice (Vital River Laboratory) were administered with antibodies or PBS intraperitoneally (i.p.) 24 hr before infection, at 10 mg/kg mouse weight. To induce acute pneumonia, the BALB/c mice were intranasally inoculated with P. aeruginosa (PA103 strain) suspended in a 40 μl inoculum at half the lethal dose (0.5*LD90; 3×10^5 CFU). 24 hours post-infection, mice were euthanized, where the lungs, spleens and kidneys were extracted, homogenized and diluted before plating on agar to measure the viable bacteria units (in CFU), which represented the P. aeruginosa burden in the respective organ sample.

[8] = test system: P. aeruginosa (O6-57/66 strain); assay: Prophylactic acute pneumonia model in immunodeficient mice, survival; format: in vivo, BALB/c mice; conditions: cyclophosphamide-immunosuppressed mice; 3.2 to 5 mg/kg i.p. 24 h before infection; 1*LD90; 10 days
Protocol: The ability of the optimized anti-PcrV antibodies 7C1, 7B1 and 8C1 to improve survival for acute pneumonia model in immunodeficient mice was evaluated in comparison to parental 13-42. HIV-10E8 was used as negative control. The acute pneumonia model in immunodeficient mice model was generated as described previously (DiGiandomenico et al., 2014, Sci. Transl. Med., 6: 262ra155).
In a prophylactic model, to achieve immunosuppression, 7-8 week old BALB/c mice (Vital River Laboratory) were first administered 2 doses of 150 mg/kg of cyclophosphamide, at 4 days and 1 day before P. aeruginosa infection, to suppress white cell count. Antibodies were then administered intraperitoneally (i.p.) at 24 h before infection, at doses of 3.2 to 5 mg/kg mouse weight. To induce acute pneumonia, the BALB/c mice were intranasally inoculated with P. aeruginosa (O6-57/66 strain) suspended in a 40 μl inoculum at the lethal dose (1*LD90=[…]). Mouse survival was recorded for up to 10 days post-infection.

Molecule | association and dissociation kinetics in PcrV binding (ka and kd values) [1] | efficacy in inhibiting RBC lysis by strains O1-52/66, O16-177/81, O6-57/66 relative to V2L2-MD or parental 13-42 mAb [2] | efficacy in inhibiting A549 lysis by four strains relative to parental 13-42 mAb [3] | non-specific binding to BV particles [4] | binding to PcrV-negative A549 cells [5] | binding to PcrV mutants with R, G or K at position 225 [6] | reduction of organ burden in the lung, spleen and kidney relative to HIV-10E8 [7] | reduction of organ burden in the lung, spleen and kidney relative to V2L2-MD [7] | survival improvement / protection relative to parental 13-42 antibody [8]
7B1: optimized anti-PcrV mAb clone; VH SEQ ID NO: 62, VL SEQ ID NO: 67 (antibody, V domains shown) VH: EVQLLESGGGLVQPGGSLRLSCTASGFTFSDNYMSWVRQAPGKGLDWVSVISESGGSTNYADSVKGRFSTSRDNSKSTLYLDMNSLRAEDTAIYYCAKGRFSTLSSHFFRAVYGMDVWGQGTAVTVSS VL: DIQLTQSPSSLSASVGDRVTITCRASQGISSYLAWYQQKPGKAPKLLIYAASTLQSGVPSRFSGSGSGTDFTLTISSLQPEDFATYYCQQLSSYPLTFGGGTKVEIK | comparable association and dissociation kinetics | better efficacy in inhibiting RBC lysis | comparable efficacy in inhibiting A549 lysis | low levels of non-specific binding | similarly low levels of A549 binding | strongly bind these mutants | higher efficacy in reducing organ burden | comparable efficacy in reducing organ burden | comparable or better protection than the parental 13-42 antibody
7C1: optimized anti-PcrV mAb clone; VH SEQ ID NO: 52, VL SEQ ID NO: 65 (antibody, V domains shown) VH: EVQLLESGGGLVQPGGSLRLSCTASGFTFSDNHMSWVRQAPGKGLDWVSGISESGGSTNYADSVKGRFSTSRDNSKSTLYLDMNSLRAEDTAIYYCAKGRFSTSSSHFYRAVYGMDVWGQGTAVTVSS VL: DIQLTQSPSSLSASVGDRVTITCRASQGISSYLAWYQQKPGKAPKLLIYAASTLQSGVPSRFSGSGSGTDFTLTISSLQPEDFATYYCQQLSSYPLSFGGGTKVEIK | comparable association and dissociation kinetics | better efficacy in inhibiting RBC lysis | comparable efficacy in inhibiting A549 lysis | low levels of non-specific binding | similarly low levels of A549 binding | strongly bind these mutants | higher efficacy in reducing organ burden | comparable efficacy in reducing organ burden | better survival improvement than the parental 13-42 antibody
8C1: optimized anti-PcrV mAb clone; VH SEQ ID NO: 51, VL SEQ ID NO: 67 (antibody, V domains shown) VH: EVQLLESGGGLVQPGGSLRLSCTASGFTFSDNHMSWVRQAPGKGLDWVSGISESGGSTNYADSVKGRFSTSRDNSKSTLYLDMNSLRAEDTAIYYCAKGRFSTNSAHFFRAVYGMDVWGQGTAVTVSS VL: DIQLTQSPSSLSASVGDRVTITCRASQGISSYLAWYQQKPGKAPKLLIYAASTLQSGVPSRFSGSGSGTDFTLTISSLQPEDFATYYCQQLSSYPLTFGGGTKVEIK | comparable association and dissociation kinetics | better efficacy in inhibiting RBC lysis | comparable efficacy in inhibiting A549 lysis | low levels of non-specific binding | similarly low levels of A549 binding | strongly bind these mutants | higher efficacy in reducing organ burden | comparable efficacy in reducing organ burden | comparable or better protection than the parental 13-42 antibody
